# According to patent US20230226096A1 (Orna Therapeutics, Inc., priority 2020, published 2023):
# B1: Human coxsackievirus A2 (nucleic acid)
# DNA: ACCTTTGTGCGCCTGTTTTATATCCCCACCCCGAGTAAACGTTAGAAGTTACGCAACCCCGATCAATAGTAGGTGTAGCACTCCAGCTGCATCGAGATCAAGCACTTCTGTCTCCCCGGACCGAGTATCAATAGACTGCTAACGCGGTTGAAGGAGAAAACGTTCGTTACCCGGCCAATTACTTCGAGAAGCCCAGTAGTGCCGTGAAAGTTGCGGAGTGTTTCGCTCAGCACTTCCCCCGTGTAGATCAGGCTGATGAGTCACCGCGATCCCCACAGGTGACTGTGGCGGTGGCTGCGTTGGCGGCCTGCCTATGGGGCAACCCATAGGACGCTCTAATACAGACATGGTGCGAAGAGCCTATTGAGCTAATTGGTAGTCCTCCGGCCCCTGAATGCGGCTAATCCTAACTGCGGAGCACATGCCCTCAAACCAGGGGGTGGTGTGTCGTAACGGGTAACTCTGCAGCGGAACCGACTACTTTGGGTGTCCGTGTTTCTTTTTATTCTTATAATGGCTGCTTATGGTGACAATTAAAGAATTGTTACCATATAGCTATTGGATTGGCCATCCGGTGACTAACAAATCGCTCATATACCAGTTTGTTGGTTTTGTTCCCTTATCACATACAGCTCATAACACCCTCTTATATTTACTACAATTGAATAGCAAGAA
# B2: Cripavirus (nucleic acid, listed as Cripavirus sp.)
# DNA: GCAAAATCGGTAGTACGTTAAACGTACGACCACCGATGAGACTGAAATGACACTAGTTGAGATTATTTCAATATCCTAGTGTTATAAAGTCAATATTTGTTGGTTGATCGTTTCGTCAATCGATGGCGCTGACAGCCGGAAAGACGGCAATAATAAAAACCAAGATTTAGTTTTTAAGTTTTGATTGAATTGCAAAAGCTATCTTGAATAGACAATCAAAATATTAAGTAAAGCAAAAGCTTCTTAAAGAAGACAATATTTAATTAGTTAGTAACCAAACCTCATCGTGCCCCTAAGGGTTAACCGGTTACGTAAAAGCGTAGAGGTATTAAGGTCACTGCGGAGACCTAAAATCCGCAATTTTATGTTTTGTAATGTTTTAGTTATAGACTTAGATGTAACTATAAGAGTTTATAAATACTTGTTTCAAGATTTATAGACAAGATCTGATCCTATGGATTTTAGATAACCTTCATGTTAGTGGATAGTGTGTGTACCTATCTAAACGCATAAGGCTCTTATTTCATATTTAAAGTAGGACTATGTATTACGGCGCATCTAACGGTAACGTTAGTCAAGACCGGAGAATCTCGGAATGAATTTTAGTAATTCCCAAATTTATA
# B3: Canine kobuvirus (nucleic acid, listed as Kobuvirus sp.)
# DNA: TTTAAGTGTTGTGCCCAATCTCTTGACTCCTGCTGGAACCACCGACCAGTAGTGTCCAAAATGCCAGGTGGAAAATCCTCCCTTCCCCTCTGGGCTTCATGCCCGGCATCCTCCCCCCAGCCTGACGTGCCACAGGCTGTGCAAAGACCCCGCGAAAGCTGCCAAAAGTGGCAATTGTGGGTCCCCCCTTTGTCAAGGCGTCGAGTCTTTCTCCCTTAAGGCTAGTCCTGTCAGTGAACTCTGTCGGGCAACTAGTGACGCCACTGCATGCCTCCGACCTCGGCCGCGGAGTGCTGCCCCCCAAGTCATGCCCCTGACCACAAGTTGTGCTGTCTGGCAAACATTGTCTGTGAGAATGTTCCGCTGTGGCTGCCAAGCCTGGTAACAGGCTGCCCCAGTGTGCGTAATTCTCATCCAGACTTCGGTCTGGCAACTTGCTGTTAAGACATGGCGTAAGGGGCGTGTGCCAACGCCCTGGAACGAGTGTCCACTCTAATACCCCGAGGAATGCTACGCAGGTACCCCTGGCTCGCCAGGGATCTGAGCGTAGGCTAATTGTCTAAGGGTATTTTCATTTCCCACCCTCTTCTTCTTGTTCATA
# B4: Chicken picornavirus 1 (nucleic acid)
# DNA: GTGGCCGACTTGCAGAACTTCCTACCGAACCACCACCTCACCCCCATAACTCCTTCCCTCTACACCTTCCGCTATGGTGGTTACCACTGCTTTATTGCCTTGACTGAGAATGGCCACCCCCTCGACACCTGCCCCCTACTGCCCCACCGCGCAACCTTTTGCTTGTCCACTCGGTTGGAGAGGCATGGGGGCCCCGTTCATATCCCCAGTCCAGTTGGTGACCTTCCCCCTCCCCGTCCGGTAGATGGTCCAGAGGGCTTTGCCGACGCCCTCTATGATGCTTGCTTGTCTTTCCTCCGTCAGCGCGAGCATGCACTTGTCGAGCCCACGGAAACACAGCCTAGCTTTTGCTTCTCTCACCCTGCGTACCCTGGGCGCCTTCCGCTCGAGATTCGCTTTGTTCGACACCCTGGCGTCCCCCCACCGCTACGTGATTTTACTCGTGGCATACACCGCCCTGGCGTTCAGTACATTCCACTGCCTAATTTGGGTGGCCTCCCTCAATCTCCCGCACCCCCCATTGCGCACGTCATCACCGCCGCCGCTAACGCGATCCGGCGCGGTTCTCACTGGCACTGTCCCCTCGTCCGCCGGGTTTCCACTCATGGTTGGCTTTTCACTTATTCTGGTTACTGGTGTTCCATCCTACTTCATGATGGTCGCCATGACCATGAC
# B5: Coronavirus AcCoV-JC34 (nucleic acid)
# DNA: AGAAACAAGTAGTGTTTTAAAAACCTTCAAATTAGTGCCTGTAACATCTTTGCAATGAAAGTAGCGCTCACTAGCCTCTATGCAAAGAATGTTAAAAGAAATACGAAGCATTTAAAGAATACAATCTATCTAGGATAGGTACAATTCTCCTCCCCCTCTTGACTTCGGTCAACTCAACTCAACTAAACGAAATCCCCCTTGCATGGTTCCGACCCGTGTAAGGTTGTGTATTTCGTGCAGTCGTTGCCCTTACTAGTGTAAGCGTAACGGCATCTAGGTTTGCACGTCTTGGAGGAAACGGTGTGTACGTTTCTAGTGTTTACGCCGTATCGGTTCCGGCCCGATAGGTATTGCATTAGACGTCCTGGGTGGTTCTGCCTGCCCTTGTGTGATTCGGCTGTTCCGTCAGTTTGGTCACCTCACACGTCCTTAAGAC
# B6: Rafivirus WHWGGF74766 (nucleic acid, listed as Rafivirus sp.)
# DNA: TGCGAATTTATTCGCACAGTCTCTTTTCCCCCATCTTGTGTGTGTGATGGGGTAAGCCGCAGAGTAATACCTACTCTGCTGCAAACACACTCACTCTTTTCTATCTACTTTATATCATGTAATAATAAGTAGGGAACATATTCAATTCATATTGTTCATCTCACTGAACCCGCATGAAGGACTGCATTGCATATCCTGGACGAAGTGACGTGGAATATTTGGACATTTATGGATTGGACACCATTACGCTTTGTGCCTCTACGGAGATGTAACCATAATCTTAAGTAGTAGTACCCCAGCACAAGAGGATAAAGTGGCATACACGACAACGGGTGTTGCTCGCACCTTAGTAATGTGGATGTTCACCCTTGGAGCGTGCTGAAACTCTGTGGGTAAAGACACACATTAGTACAAATGTGGGGGAACTCACTGAAAGGGCATGTCCCGTGTACTGGTGTGCCGGAAAGTGGGGGTCGCTTTCTGGAGAACTTAGTAGTTCTTGTTATTGGGTGATAGCCTTGCGGCGGATCAACTCACAGTTTTAATCCGTTGTTTTGCAT
# B7: Camel alphacoronavirus (nucleic acid, listed as Alphacoronavirus sp.)
# DNA: CTTAAGTGTCTTATCTATCTATAGATAGAAAAGTCGCTTTTTAGACTTTGTGTCTACTCTTCTCAACTAAACGAAATTTTTGCTACGGCCGGCATCTCTGATGCTGGAGTCGTGGCGTAATTGAAATTTCATTTGGGTTGCAACAGTTTGGAAATAAGTGCTGTGCGTCCTAGTCTAAGGGTTCTGTGTTCTGTCACGGGATTCCATTCTACAAACGCCTTACTCGAGGTTCTGTCTCGTGTTTGTGTGGAAGCAAAGTTCTGTCTTTGTGGAAACCAGTAACTGTTCCTA
# B8: Chicken picornavirus 3 (nucleic acid)
# DNA: GGGTATGGTGGTTAACCCCGTCCACTGGGCATCTTTGCCCTCTCAGAAGTGGATCAATCCACCCCAACTCCCCCCCTGGTTACCTGAGCCACAGTGGACTCCGGTGACGAAGCTAGGGACCCCAATACCTCAAGTGCCAAGAGAGTCCCCCCCTCGCGAGAGGTGCTCTTGGGCCCAAAAGGCTAGTTGGCAGAGTGAAGTGAAGGAAGCTGCTAACGTGGTGACCTTAAGCGTAATTCGAAGCTGACCTTTGAGGTTAACCCTAGTGGACCACTGGAGGAATCTGTGGAGGTGGTGGTTAGGAAAGTTGGCCACTTGTGAGTAGATGCCCAGAAGGCATAAGGCTGATCTGGGGCCAGTGACTATACCGTTCCGGTAAACCTGGTATAAAAACCATGAAAGCAAGTGGGTGAAATTTTCTCTTTTTATCCTTCATTCAGCAGTTGATATTGGCAAA
# B9: Canine picodicistrovirus strain 209 (nucleic acid)
# DNA: CGCTCTTTATACAAATCTGTCAACCCTTTGTATAACTCTAAGCCGAACAATTATAGCTAGGCTTTTTATTATATAACATTAATTAGGCATTAGCGTTGTCGCCAATCTCTTGGTAATCCTAAGGATACCTTTCCTGTTGACTAAGATGAAGCGCCTTCGGTTACCGATGCCCGGTGTCCACGAAGCCATCGTGGTCGGCCGCGTCCCCCACCTCTCCCAACTTGGACTCCATGTTTTCAGTAGGTGTAATGATTAGTATTATTGATTCTGCTCGTTCAATGTGTTTATCTTCACGATCTGGGACCCAACACATGCTTCACTCATGTTTAAATGTTGGTTCCCTCATTTTGAAGACACCCAAACCATAGAGTGCGAGAATGAGGATTTCTACTTCCATTCTGGTAACAGAAATGAATTCCTGCGTGTGTCTCGTAAATGGAATCTTTAAGAACTTCAGATAAATCGAACAATACACTAATACAAGTTGTTTTCTACCAACATGTTCAATGCGGCTAATCTGACCGTGGAGCTGTGAAGCGCTCAAACCCGAGTGTTGTATACAGTCGTAATGCGTAAGTCCATGAGGAACCGACTACTGTTACCTCTGTTGGTGTGTTTCTCCTTTCCTCTCTTTTATTATTATTTGTTATTGCAAATACTACAACTTTGATCAAC
# B10: Canine distemper virus (nucleic acid, listed as Canine morbillivirus)
# DNA: ACCAGACAAAGTTGGCTAAGGATAGTTAAATTATTGAATATTTTATTAAAAACTTAGGGTCAATGATCCTACCTTAAAGAACAAGGCTAGGGTTCAGACCTACCAAT
# modifications: chemistry not fully specified
# Tested on: HEK293 cells
# Assay type: cell-based, human
# Details: luminescence from secreted Gluc in supernatant 24 hours after transfection of HEK293 cells; circular RNA encoding Gluc with the named IRES (UTR truncated to 675 nt)
row,Molecule,Expression
1,B1,7.75E+07
2,B2,1.95E+05
3,B3,1.48E+08
4,B4,1.21E+05
5,B5,1.82E+05
6,B6,4.53E+06
7,B7,2.48E+05
8,B8,9.13E+04
9,B9,2.79E+06
10,B10,3.02E+05
